What was measured:
[1] = biological target: T1, recombinant His-tagged Der p1 (dust mite, UniProt P08176 99-320, limits assumed); assay: cell-based or functional assay
T1 sequence (looked up): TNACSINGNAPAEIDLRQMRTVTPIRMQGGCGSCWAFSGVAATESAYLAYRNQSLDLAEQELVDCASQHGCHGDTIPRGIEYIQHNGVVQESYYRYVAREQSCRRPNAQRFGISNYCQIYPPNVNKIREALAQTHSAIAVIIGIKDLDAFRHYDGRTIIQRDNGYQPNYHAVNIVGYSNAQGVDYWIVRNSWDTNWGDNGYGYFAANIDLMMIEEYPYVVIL

[2] = biological target: T1, recombinant His-tagged Der p1; assay: ELISA, antigen coated on plate
Procedure: (§1) 2 microgram per milliliter (μg/mL) target antigen is coated in a 96-well plate and ELISA assay is performed after incubation with candidate VHHs. The binding EC50 of each clone is calculated using Prism GraphPad. The positive control antibody is involved as an internal control.
Isolated VHH clones were further validated by performing an ELISA assay as described in Example 1. The individual binding curves are shown for each candidate in FIGS. 9A-9K.

[3] = Thermostability (Tm, Tonset, Tagg) by Nanotemper DSF; format: physicochemical; set-up: key to Tm2 / Tagg / Tm1 / Tm / Tm3 / Tonset / Tonset ø (mean) / Tagg ø (mean): temperatures in °C; settings: anti-Der p2 VHH; for Tagg: 20° C.-95° C. at 1° C./min; for Tm1: first melting point observed; for Tm2: second melting point observed
Procedure: (§2) Isolated VHH clones were further validated by performing an ELISA assay as described in Example 1. Metrics of thermostability including melting temperature (Tm), onset temperature (Tonset), and temperature of aggregation (Tagg), were also tested with increasing temperature in the range of 20° C.-95° C. at the speed of 1° C./min. These measurements were performed using a Nanotemper DSF. When applicable, Tm1 refers to the first melting point observed, Tm2 refers to the second melting point observed, etc., Sequence information for the VHH clones and the binding assay results are summarized in Table 3. The individual binding curves are shown for each candidate in FIGS. 3B-3I.
(§3) Isolated VHH clones were further validated by performing an ELISA assay as described in Example 1. Metrics of thermostability including melting temperature (Tm), onset temperature (Tonset), and temperature of aggregation (Tagg), were also tested with increasing temperature in the range of 20° C.-95° C. at the speed of 1° C./min. The individual binding curves are shown for each candidate in FIGS. 5B-5H.
as §3, with “7B-7P.” for “5B-5H.”
The detailed thermostability graphs used to determine the Tm, Tonset, and Tagg are illustrated in FIGS. 19A-19I and raw data is summarized in Table 23. Any subsequent melting points observed (Tm1, Tm2, Tm3, etc.) are separated by commas.

[4] = biological target: T2, recombinant His-tagged Der p2 (dust mite, UniProt P49278 18-146); assay: ELISA, antigen coated
T2 construct: also called Der p2-His; Der p2-HIS; not shown: His tag
T2 sequence (looked up): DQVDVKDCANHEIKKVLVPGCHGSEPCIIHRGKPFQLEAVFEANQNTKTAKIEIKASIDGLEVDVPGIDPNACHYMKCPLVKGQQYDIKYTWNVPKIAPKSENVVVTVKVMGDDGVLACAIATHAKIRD
Procedure: as §1
as §2, with “(Tₘ),” for “(Tm),”, “(Tₒₙₛₑₜ),” for “(Tonset),”, “Tₘ1” for “Tm1”, “Tₘ2” for “Tm2”

[5] = biological target: T3, recombinant His-tagged Can f1 (dog (Canis familiaris), UniProt O18873 19-174); assay: ELISA, antigen coated
T3 construct: also called Can f1-His; recombinant Can f1; not shown: His tag
T3 sequence (O18873 19-174 limits assumed): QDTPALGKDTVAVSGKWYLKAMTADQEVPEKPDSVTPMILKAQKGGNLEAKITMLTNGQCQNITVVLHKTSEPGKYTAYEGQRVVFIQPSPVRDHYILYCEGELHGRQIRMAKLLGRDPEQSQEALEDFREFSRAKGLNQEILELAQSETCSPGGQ
Procedure: as §1
as §3, with “(Tₘ),” for “(Tm),”, “(Tₒₙₛₑₜ),” for “(Tonset),”

B1: SDAB22129-55-35-46-49-1-G07 (VHH)
VHH: QVQLVESGGGLVQAGGSLRLSCAASGRTFSSYAMGWFRQAPGKERELVATISWSGGSTYYADSVKGRFTISRDNAKNTGFLQMNSLKPEDTAVYYCAADFASTVGTPLTRPAYWGQGTQVTVSS
notes: Expressed from a prokaryotic vector
[1]
  Maximum Rate of Blocking: 93.3
[2]
  EC50: 0.485 µg/mL

B2: SDAB22129-55-35-46-49-1-H08 (VHH)
VHH: EVQLVESGGGLVQAGGSLTLSCGRTTSIWGMGWFRQGRGKEREFVAAITPSGSITFYSDHVKGRFTVSRDNALNTVYLQMNSLKPEDTAVYYCARRGSSGSYYWAGSYEAWGQGTQVTVSS
notes: as for B1
[1]
  Maximum Rate of Blocking: 92.8
[2]
  EC50: 16.5 µg/mL

B3: SDAB22129-55-35-46-49-1-C12 (VHH)
VHH: QVQLVESGGGLVQAGGSLRLSCAASGRTFSSYAMGWFRQAPGKEREFVAIISNTGGLTDYAHSVKGRFTISRDNAKNTGYLQMNSLKPEDTALYYCAADFLGPKSWPSYWGQGTQVTVSS
notes: as for B1
[1]
  Maximum Rate of Blocking: 91.6
[2]
  EC50: 4.95 µg/mL

B4: SDAB22129-55-35-46-49-1-G02 (VHH)
VHH: QLQLVESGGGLVQAGGSLRLSCTASGRTFRNFGMGWFRQAPGKERKLVASISYVGGNTDYADSVKGRFTISMDNAKNTVVLQMNSLKPEDTAMYYCAARNPNRNEYPWWGQGTQVTVSS
notes: as for B1
[1]
  Maximum Rate of Blocking: 85.2
[2]
  EC50: 4.21 µg/mL

B5: SDAB22129-55-35-46-49-1-B02 (VHH)
VHH: QLQLVESGGGLVQSGGSLRLSCVAKGGTNHPYPIGWFRQAPGKEQEGVLCIASGGQTQDSAHNPNWADSVKGRFTISRDDATHTVYLEMNNLKADDTAVYFCAAPREIYIDSRCATYKYEYWGQGTQVTVSP
notes: as for B1
[1]
  Maximum Rate of Blocking: 75.4
[2]
  EC50: 0.0193 µg/mL

B6: SDAB22129-55-35-46-49-1-D01 (VHH)
VHH: QVQLVESGGGLVQAGGSLRLSCAASGRTFSRYAMGWFRQAPGKEREFVAAITGSGSRTYYADSIQGRFTISRDNAKNTVYLQMNSLKPEDTAVYYCVQGWAEATMTSLGEDYDYWGQGTQVTVSS
notes: as for B1
[1]
  Maximum Rate of Blocking: 73
[2]
  EC50: 0.0147 µg/mL

B7: SDAB22129-55-35-46-49-1-B12 (VHH)
VHH: QVQLVESGGGLVQAGGPLRLSCAASGRTFSSYAMGWFRQAPGKEREFVAAISWSGDSTYYADSVKGRFTLSRDNAKNTVYLQMNSLKPEDTAVYYCAVPSSGRGTYYYTLSAYEYWGQGTQVTVFS
notes: as for B1
[1]
  Maximum Rate of Blocking: 95.4
[2]
  EC50: 1.77 µg/mL

B8: SDAB22111-1-D3 (VHH)
VHH: QLQLVESGGGLVQPGGSLRLSCVVSGRTLSGHNMGWFRQAPGKEREFVARINSNGGTTRYADAVKGRFTISRDNAKNTAYLQMNSLKSEDTAVYYCRLVGPAGYWGQGTQVTVSS
notes: anti-Der p2 alpaca VHH; prokaryotic expression
[3]
  Tagg: 42.45
[3]; in °C (unit assumed)
  Tm1: 53.78
  Tm2: 69.76
[4]
  EC50: 8.41 µg/mL

B9: SDAB22111-1-D6 (VHH)
VHH: DVQLVESGGGLVQPGGSLRLSCVASGLTFSYYDMKWHRQAPGKERELVAAIIEGGRTMYADSVKGRFTISRDSPKKSVYLQMNNLKSEDTAVYYCNAVRARFRGLGNDDAWGQGTQVTVSS
notes: as for B8
[3]
  Tagg: 41.57
[3]; in °C (unit assumed)
  Tm1: 49.02
  Tm2: 62.55
[4]
  EC50: 9.66 µg/mL

B10: SDAB22111-1-C1 (VHH)
VHH: QVQLVESGGGLVQPGGSLRLSCAASASFVGAYAMYWFRQATGKQRELVAFITSGNSTNYADSVKGRFTISRDYTKNTVYLQMNKLKPEDTAVYSCNLVTSRGDYWGQGTQVTVSS
notes: as for B8
[3]
  Tagg: 43.53
[3]; in °C (unit assumed)
  Tm1: 54.52
  Tm2: 66.51
[4]
  EC50: 1.11 µg/mL

B11: SDAB22111-1-F9-B03 (VHH)
VHH: EVQLVESGGGLVQPGGSLRLSCAASGRTFSSYAMGWFRQAPGKEREFVAGISRRGSNIYYADSVKGRFTISRDNAKNTVYLQMNSLKPEDTAVYYCNARHPRISTRLYWGQGTQVTVSS
notes: as for B8
[3]
  Tagg: 40.04
[3]; single melting point, in °C (unit assumed)
  Tm: 71.38
[4]
  EC50: 15.9 µg/mL

B12: SDAB22111-1-H12 (VHH)
VHH: QVQLVESGGGLVQPGGSLRLSCAASRSIDRFPAMGWYRQAPGKKRELVAAISSANTRTKYADSVKGRFTISRDNAENTMYLQMNSLKPEDTAVYYCNVFPRPVQGYWGQGTQVTVSS
notes: as for B8
[3]
  Tagg: 43.37
[3]; in °C (unit assumed)
  Tm1: 51.93
  Tm2: 59.13
[3]; third melting point, in °C (unit assumed)
  Tm3: 68.62
[4]
  EC50: 2.67 µg/mL

B13: SDAB22111-1-F9 (VHH)
VHH: QVQLVESGGGLVQPGGSLRLSCAASGRIFRPDGMAWYRQAPGKQREFVAGITRGGRTTYADSVKGRFTISRDNAENTVYLQMNSLKPEDTAVYYCNAKPSAWTLPRYRYDYWGQGTQVTVSS
notes: as for B8
[4]
  EC50: 4.95 µg/mL

B14: SDAB22111-1-B1 (VHH)
VHH: DVQLVESGGGLVQPGGSLRLSCAASGFTFALYSMRWYRQAPGKERELVAAITSGRSTNYADSVKGRFTISRDNAKNTVYLQMNSLKPEDTAVYHCNARHPIATLGNYWGQGTPVTVSS
notes: as for B8
[4]
  EC50: 8.23 µg/mL

B15: SDAB22111-1-E10 (VHH)
VHH: QLQLVESGGGMVQPGGSLRLSCAASGTLFSTALMGWYRQAPGKQRTLVASITDGGSTNYVDSVKGRFTISRDNEKNTVYLQMNSLKFEDTAVYYCNAHWGSYDYWGQGTQVVVSS
notes: as for B8
[4]
  EC50: 6.57 µg/mL

B16: SDAB22112-2-D08 (VHH)
VHH: QVKLEESGGGLVQAGGSLRLSCVASGRTFSRWHTGWYRQAPGREREFVATLRASGGDTYYADSVKGRFTISRDNAKNTVYLQMNSLKPEDTAVYYCNVWANWGAPPSDFSSWGQGTQVTVSS
notes: anti-Can f1 alpaca VHH
[5]
  EC50: 5.84 µg/mL

B17: SDAB22112-1-C10 (VHH)
VHH: QLQLVESGGGLVQPGGSLRLSCAASGFTFSSYSMSWYRQAPGKERELVATIDTDGRTNYADSVKGRFTISRDNAKNSVYLQMNSLKPEDTAVYYCNRRQLGVDYWGQGTQVTVSS
notes: anti-Can f1 alpaca VHH
[5]
  EC50: 9.4 µg/mL

B18: SDAB22112-1-D12-3 (VHH)
VHH: QVQLVESGGGLVQPGGSLRLSCAASGFTFSNYGMSWVRQAPGKGLEWVSDVNSSGSRRFYVDSVKGRFTISRDNAKNTVFLQMNSLKPEDSAVYYCVKLAEAGTLIHVGSWGQGTRVTVSS
notes: anti-Can f1 alpaca VHH
[5]
  EC50: 10.4 µg/mL

B19: SDAB22112-1-C9 (VHH)
VHH: QLQLVESGGGLVQPGGSLRLSCVGSGFTFSLASMGWYRQAPGKEREWVASISSLDASTNYADSVKGRFTISRDNAKRMVYLQMNNLKSEDTAVYYCKAMNYWGKGTQVTVSS
notes: anti-Can f1 alpaca VHH
[5]
  EC50: 13.1 µg/mL

B20: SDAB22112-1-B6-B05 (VHH)
VHH: QLQLVESGGGLVQPGGSLRLSCAASRSIFSSYVMAWYRRAPGKKRELVASIANVGSNTDYASFAKGRFTISRDDDKSRDNDKITVYLQMNSLNPEDTAVYYCNAWLGAGSDYWGQGTQVTVSS
notes: anti-Can f1 alpaca VHH
[5]
  EC50: 8.42 µg/mL

From patent US20240352105A1, “COMPOSITIONS AND METHODS FOR NEUTRALIZING ANTIGENS” (PACAGEN, INC, priority 2023, published 2024)
